Test results as given in article PMC5431456.

Assays:
[1] = target: Subtilase cytotoxin B subunit (SubB), wild type (Escherichia coli) (UniProt Q6EZC3); assay: SPR; Biacore T100; SubB or SubB mutant immobilised on a series S CM5 chip (flow cell 1 blank); AGP flowed over, 0.01-100 µM in range finding; single cycle kinetics
[2] = target: SubB ΔS106/ΔT107/E108D (Escherichia coli) (UniProt Q6EZC3); assay: SPR
[3] = target: SubB S106A/T107A (Escherichia coli) (UniProt Q6EZC3); assay: SPR
[4] = target: SubB ΔS106/ΔT107 (Escherichia coli) (UniProt Q6EZC3); assay: SPR

human α1-acid glycoprotein (AGP) (from UniProt P02763 19-201) (natural protein)
Kd [1]: 2.12 µM | Kd [2]: 2.82 µM | Kd [3]: 0.723 µM | Kd [4]: 1.65 µM
